Measurements reported in patent US20220402985A1.
Where a chain is given by its changes, count along the chain named.

B1: huNRG1(S177-Q237)(1A1)::GG::huFcSEFL2 (Pb) (Fc fusion)
chain: SHLVKCGESEKSFCVNGGECYVIEDSSIPSRFLCKCPNEFTGDRCQNVFLASFYKAEELYQGGDKTHTCPPCPAPELLGGPSVFLFPPKPKDTLMISRTPEVTCVVVDVSHEDPEVKFNWYVDGVEVHNAKTKPCEEQYGSTYRCVSVLTVLHQDWLNGKEYKCKVSNKALPAPIEKTISKAKGQPREPQVYTLPPSREEMTKNQVSLTCLVKGFYPSDIAVEWESNGQPENNYKTTPPVLDSDGSFFLYSKLTVDKSRWQQGNVFSCSVMHEALHNHYTQKSLSLSPGK
B2: huNRG1(S177-Q237)(1A12)::GG::huFcSEFL2 (Pb) (Fc fusion)
chain: B1 chain with G7A, S9K, E10H, I23V, D25R, S26P, F32Y, N47K, V48F, L50M
B3: huNRG1(S177-Q237)(1A7)::GG::huFcSEFL2 (Pb) (Fc fusion)
chain: B1 chain with G7A, S9R, E10D, D25H, S26L, I28N, N47K, V48D, L50M
B4: huNRG1(S177-Q237)(1B4)::GG::huFcSEFL2 (Pb) (Fc fusion)
chain: B1 chain with S9R, E10D, S12T, Y21F, V22M, I28N, F32Y, N47K, V48D, L50M
B5: huNRG1(S177-Q237)(1B9)::GG::huFcSEFL2 (Pb) (Fc fusion)
chain: B1 chain with G7A, S9K, E10H, Y21F, V22M, I23V, S26L, F32Y, N47D, L50M
B6: huNRG1(S177-Q237)(1C11)::GG::huFcSEFL2 (Pb) (Fc fusion)
chain: B1 chain with S9K, S12T, V22M, I23V, D25R, S26P, N47K, V48F, L50M
B7: huNRG1(S177-Q237)(1D10)::GG::huFcSEFL2 (Pb) (Fc fusion)
chain: B1 chain with G7A, S9R, E10D, S12T, V22M, S26L, F32Y, N47K, V48D, L50M
B8: huNRG1(S177-Q237)(2E3)::GG::huFcSEFL2 (Pb) (Fc fusion)
chain: B1 chain with S9K, V22M, D25G, S26L, N47D, L50M
B9: huNRG1(S177-Q237)(2E4)::GG::huFcSEFL2 (Pb) (Fc fusion)
chain: B1 chain with E10D, Y21F, V22M, I23V, E24K, D25R, S26P, I28N, F32Y, N47K
B10: huNRG1(S177-Q237)(2F2)::GG::huFcSEFL2 (Pb) (Fc fusion)
chain: B1 chain with G7A, S12T, V22M, D25H, S26P, I28N, L50M
B11: huNRG1(S177-Q237)(2G3)::GG::huFcSEFL2 (Pb) (Fc fusion)
chain: B1 chain with S9R, E10Q, V22M, I23V, S26L, F32Y, N47K, L50M
B12: huNRG1(S177-Q237)(2G4)::GG::huFcSEFL2 (Pb) (Fc fusion)
chain: B1 chain with G7A, S9N, S12T, Y21F, I23V, D25G, S26L, F32Y, N47D, L50M
B13: huNRG1(S177-Q237)(2H7)::GG::huFcSEFL2 (Pb) (Fc fusion)
chain: B1 chain with S9K, I23V, S26L, N47K, F49V, L50M
B14: huNRG1(S177-Q237)(3A7)::GG::huFcSEFL2 (Pb) (Fc fusion)
chain: B1 chain with G7A, S9K, Y21F, D25G, N47K, F49V, L50M
B15: huNRG1(S177-Q237)(3B8)::GG::huFcSEFL2 (Pb) (Fc fusion)
chain: B1 chain with S9R, E10D, Y21F, V22M, I23V, D25R, F32Y, N47D, V48F
B16: huNRG1(S177-Q237)(3D6)::GG::huFcSEFL2 (Pb) (Fc fusion)
chain: B1 chain with E10D, Y21F, D25G, N47D, V48F, L50M

Tests used:
[1] = molecular target: ErbB3 on rat Schwann cells (rat) (UniProt Q62799); assay: cell-based or functional assay
ErbB3 on rat Schwann cells (rat), sequence (Q62799 20-1339): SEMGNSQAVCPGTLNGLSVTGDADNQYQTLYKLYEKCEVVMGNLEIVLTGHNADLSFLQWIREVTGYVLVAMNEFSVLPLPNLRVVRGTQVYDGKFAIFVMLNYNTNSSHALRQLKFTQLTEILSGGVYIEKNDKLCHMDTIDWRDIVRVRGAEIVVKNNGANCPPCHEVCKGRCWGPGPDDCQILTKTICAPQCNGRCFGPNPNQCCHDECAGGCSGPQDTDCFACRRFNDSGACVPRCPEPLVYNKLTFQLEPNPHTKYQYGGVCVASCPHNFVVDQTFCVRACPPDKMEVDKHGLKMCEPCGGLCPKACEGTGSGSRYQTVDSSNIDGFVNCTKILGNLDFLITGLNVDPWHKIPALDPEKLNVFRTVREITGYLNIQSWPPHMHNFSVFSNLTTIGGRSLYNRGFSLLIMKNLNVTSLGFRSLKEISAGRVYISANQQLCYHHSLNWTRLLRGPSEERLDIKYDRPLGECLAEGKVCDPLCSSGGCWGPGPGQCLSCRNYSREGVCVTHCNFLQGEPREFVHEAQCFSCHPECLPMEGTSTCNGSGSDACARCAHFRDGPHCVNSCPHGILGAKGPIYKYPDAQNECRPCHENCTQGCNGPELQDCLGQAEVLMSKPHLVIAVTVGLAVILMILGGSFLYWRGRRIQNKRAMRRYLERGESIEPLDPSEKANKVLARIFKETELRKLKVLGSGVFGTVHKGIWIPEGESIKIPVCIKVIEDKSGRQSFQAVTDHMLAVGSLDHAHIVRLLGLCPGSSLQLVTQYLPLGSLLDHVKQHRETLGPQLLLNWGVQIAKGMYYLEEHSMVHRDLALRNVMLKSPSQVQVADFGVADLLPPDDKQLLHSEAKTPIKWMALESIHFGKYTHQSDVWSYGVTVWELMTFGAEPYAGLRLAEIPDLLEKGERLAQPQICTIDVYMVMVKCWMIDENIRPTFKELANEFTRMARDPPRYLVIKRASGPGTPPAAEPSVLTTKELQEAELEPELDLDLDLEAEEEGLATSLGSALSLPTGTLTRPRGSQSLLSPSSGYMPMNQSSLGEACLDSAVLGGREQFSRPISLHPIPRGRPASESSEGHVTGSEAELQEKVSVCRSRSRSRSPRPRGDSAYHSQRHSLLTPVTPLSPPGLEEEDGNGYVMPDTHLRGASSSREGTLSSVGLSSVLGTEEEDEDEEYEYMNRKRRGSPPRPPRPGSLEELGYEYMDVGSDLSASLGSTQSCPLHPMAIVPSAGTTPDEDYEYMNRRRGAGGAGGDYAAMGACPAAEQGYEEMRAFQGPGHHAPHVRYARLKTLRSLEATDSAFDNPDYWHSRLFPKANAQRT

[2] = molecular target: ErbB4 on neonatal rat cardiomyocytes (rat) (UniProt Q62956); assay: cell-based or functional assay
ErbB4 on neonatal rat cardiomyocytes (rat), sequence (Q62956 26-1308): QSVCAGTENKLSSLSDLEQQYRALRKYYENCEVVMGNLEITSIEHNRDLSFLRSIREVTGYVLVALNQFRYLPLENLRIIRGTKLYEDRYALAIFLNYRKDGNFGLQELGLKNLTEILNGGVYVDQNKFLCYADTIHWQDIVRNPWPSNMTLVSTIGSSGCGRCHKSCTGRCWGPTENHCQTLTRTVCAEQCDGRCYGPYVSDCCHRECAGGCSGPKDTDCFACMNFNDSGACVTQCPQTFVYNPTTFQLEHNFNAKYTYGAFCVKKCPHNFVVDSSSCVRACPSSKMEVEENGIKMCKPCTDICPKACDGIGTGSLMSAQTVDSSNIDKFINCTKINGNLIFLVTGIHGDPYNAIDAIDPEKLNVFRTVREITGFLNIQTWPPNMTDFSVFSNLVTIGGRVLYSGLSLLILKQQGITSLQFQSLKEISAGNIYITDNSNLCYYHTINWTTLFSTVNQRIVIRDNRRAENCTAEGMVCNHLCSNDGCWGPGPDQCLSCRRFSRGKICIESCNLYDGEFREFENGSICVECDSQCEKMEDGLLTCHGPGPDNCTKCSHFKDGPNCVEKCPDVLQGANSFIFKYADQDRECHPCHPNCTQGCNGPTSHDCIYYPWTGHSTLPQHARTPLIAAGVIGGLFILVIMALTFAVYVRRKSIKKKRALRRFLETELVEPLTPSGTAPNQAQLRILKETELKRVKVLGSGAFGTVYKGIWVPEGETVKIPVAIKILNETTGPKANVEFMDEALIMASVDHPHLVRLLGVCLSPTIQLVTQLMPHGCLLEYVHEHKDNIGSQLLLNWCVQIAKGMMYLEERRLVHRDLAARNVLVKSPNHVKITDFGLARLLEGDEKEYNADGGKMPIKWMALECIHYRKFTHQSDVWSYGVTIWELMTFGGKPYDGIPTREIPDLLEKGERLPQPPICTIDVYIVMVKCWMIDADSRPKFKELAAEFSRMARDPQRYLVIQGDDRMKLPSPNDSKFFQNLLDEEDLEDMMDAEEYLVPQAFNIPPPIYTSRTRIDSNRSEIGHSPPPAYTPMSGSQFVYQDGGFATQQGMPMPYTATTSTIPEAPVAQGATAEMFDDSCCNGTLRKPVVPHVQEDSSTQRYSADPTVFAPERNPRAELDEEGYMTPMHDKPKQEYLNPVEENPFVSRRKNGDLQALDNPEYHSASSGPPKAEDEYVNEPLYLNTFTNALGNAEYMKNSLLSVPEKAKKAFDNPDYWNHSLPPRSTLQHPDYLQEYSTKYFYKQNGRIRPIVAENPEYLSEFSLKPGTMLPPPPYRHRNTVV

Row | Binder | Schwann cells (SC) (ErbB3) Avg EC50 [1] | Cardiomyocyte (CM) (ErbB4) Avg EC50 [2] | Selectivity SC/CM [2] | CM % Agonism AVG [2]
1 | B1 | 9.11 nM | 0.133 nM | 69 | 
2 | B2 | 47.9 nM | 0.722 nM | 66 | 
3 | B3 | 1000 nM | 0.619 nM | 1620 | 
4 | B4 | 10000 nM | 0.996 nM | > 10000 | 
5 | B5 | 1000 nM | 1.92 nM | 520 | < 50%
6 | B6 | 87 nM | 1.1 nM | 79 | 
7 | B7 | > 3000 nM | 0.741 nM | > 4000 | 
8 | B8 | 1000 nM | 0.658 nM | 1520 | < 50%
9 | B9 | 61.5 nM | 0.429 nM | 143 | 
10 | B10 | 202 nM | 0.244 nM | 826 | 
11 | B11 | 60.8 nM | 0.208 nM | 292 | 
12 | B12 | 1000 nM | 2.42 nM | 414 | < 50%
13 | B13 | 110 nM | 0.3 nM | 368 | < 50%
14 | B14 | 46.5 nM | 0.366 nM | 127 | < 50%
15 | B15 | 3000 nM | 1.4 nM | 2150 | < 50%
16 | B16 | > 10000 nM | 2.6 nM | > 3800 | < 50%
